Where a SMILES comes first, the peptide text is derived from it. The star is where a group is joined. Cbz = O=C(OCc1ccccc1)*
T1: Robo3 (Homo sapiens, UniProt Q96MS0)
T1 construct: endogenous in cells; host or cells: A-673 Ewing sarcoma cells
T1 sequence (Q96MS0 21-1386): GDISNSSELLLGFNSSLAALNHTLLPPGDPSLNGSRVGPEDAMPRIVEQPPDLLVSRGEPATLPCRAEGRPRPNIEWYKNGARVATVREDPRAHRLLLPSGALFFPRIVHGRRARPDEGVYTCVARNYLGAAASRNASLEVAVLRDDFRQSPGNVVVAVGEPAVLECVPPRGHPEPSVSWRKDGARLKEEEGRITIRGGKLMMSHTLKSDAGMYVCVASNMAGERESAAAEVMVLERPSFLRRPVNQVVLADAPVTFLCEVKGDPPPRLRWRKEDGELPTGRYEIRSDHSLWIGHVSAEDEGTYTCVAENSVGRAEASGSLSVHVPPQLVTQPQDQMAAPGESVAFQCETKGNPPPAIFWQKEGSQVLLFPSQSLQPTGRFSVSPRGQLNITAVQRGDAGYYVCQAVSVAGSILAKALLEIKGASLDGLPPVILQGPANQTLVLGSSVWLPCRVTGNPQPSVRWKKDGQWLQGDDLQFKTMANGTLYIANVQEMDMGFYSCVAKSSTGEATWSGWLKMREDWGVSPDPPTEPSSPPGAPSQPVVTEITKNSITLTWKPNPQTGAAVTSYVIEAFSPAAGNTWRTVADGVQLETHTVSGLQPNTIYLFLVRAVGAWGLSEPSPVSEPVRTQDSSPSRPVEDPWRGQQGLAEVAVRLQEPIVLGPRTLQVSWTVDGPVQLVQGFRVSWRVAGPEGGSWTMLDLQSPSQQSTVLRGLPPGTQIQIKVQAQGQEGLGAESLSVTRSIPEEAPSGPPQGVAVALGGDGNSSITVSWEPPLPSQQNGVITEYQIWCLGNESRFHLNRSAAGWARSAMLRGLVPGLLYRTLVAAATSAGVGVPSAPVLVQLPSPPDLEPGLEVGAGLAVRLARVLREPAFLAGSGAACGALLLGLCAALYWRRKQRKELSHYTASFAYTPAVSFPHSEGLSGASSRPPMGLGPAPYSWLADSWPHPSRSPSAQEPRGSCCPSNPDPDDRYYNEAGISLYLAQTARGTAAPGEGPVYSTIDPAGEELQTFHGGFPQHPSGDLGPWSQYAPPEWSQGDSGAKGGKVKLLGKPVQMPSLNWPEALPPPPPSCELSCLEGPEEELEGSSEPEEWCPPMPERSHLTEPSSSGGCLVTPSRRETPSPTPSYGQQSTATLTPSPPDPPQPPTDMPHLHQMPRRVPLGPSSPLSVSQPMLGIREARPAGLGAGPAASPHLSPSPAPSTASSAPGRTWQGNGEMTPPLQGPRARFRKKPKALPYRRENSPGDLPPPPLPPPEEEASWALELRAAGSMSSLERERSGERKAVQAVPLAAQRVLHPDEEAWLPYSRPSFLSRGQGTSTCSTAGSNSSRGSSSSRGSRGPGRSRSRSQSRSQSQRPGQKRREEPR

B1: anti-NELL2 mouse monoclonal antibody clone #17 (antibody, V domains shown)
VH: DVQLVESGGGLVQPGGSRKLSCAASGFTFSSFGMHWVRQAPEKGLEWVAYVSGGSSTIYYADTVKGRFTISRDNPKNTLFLQMTSLRSEDTAMYYCARSFSLLRLPVYFDFWGQGTTLTVSS
VL: DIQMTQSPSSLSASLGERVSLTCRASQEISDYLTWLQQKPDGTIKRLIYAASTLDSGVPKRFSGSRSGSDYSLTISSLESEDFADYYCLQYASFPLTFGAGTKLELK
notes: Mouse hybridoma mAb; also called NELL2 mAb
B2: anti-NELL2 mouse monoclonal antibody clone #15 (antibody, V domains shown)
VH: EVKLVESGGGLVQPGGSLKLSCATSGFTFSDYYLYWVRQTPEKRLEWVAYISNGGDITYYPDTVKGRFAISRDNAKNTLYLQMSRLKSEDTAMYYCARGRVRSYYGNPDAMDFWGQGTSVTVSS
VL: DVVMTQTPLSLPVSLGDQASISCRSSQSLVHSNGNTYLHWYLQKPGQSPKLLIYKVSKRFSGVPDRFSGSGSGTDFTLKITRVEAEDLGVYFCSQSIYVPHTFGGGTKLEIK
notes: as for B1

Key:
[1] = system: BAF complexes; assay: BAF subunit protein levels by immunoblotting in Ewing sarcoma cells; format: cell-based, human; details: CN04 treatment plus MG-132
Description: Immunoblotting. […] The following antibodies were used: rabbit polyclonal anti-FLI1 (ab15289, Abcam); mouse monoclonal anti-FLAG M2 (F1804, MilliporeSigma): rabbit monoclonal anti-NELL2 (ab181376, Abcam); goat polyclonal anti-PGK1 (sc-17943, Santa Cruz Biotechnology); rabbit polyclonal anti-Robo3 (LS-C345713, LSBio); goat polyclonal anti-Robo3 (PA5-18714, Thermo Fisher Scientific); mouse monoclonal anti-cdc42 (ACD03, Cytoskeleton); rabbit polyclonal anti-Rac1/2/3 (2465, Cell Signaling Technologies); rabbit polyclonal anti-Rho A (2117, Cell Signaling Technologies); goat polyclonal anti-BRG1 (A303-877A, Bethyl Laboratories); rabbit monoclonal anti-BRG1 (49360, Cell Signaling Technologies); rabbit polyclonal anti-BRM (A301-014A-T, Bethyl Laboratories); mouse monoclonal anti-ARID1A/BAF250) (sc-32761, Santa Cruz Biotechnology); rabbit polyclonal anti-BAF170 (A301-039A-T, Bethyl Laboratories); rabbit monoclonal anti-BAF155 (11956, Cell Signaling Technologies); rabbit polyclonal anti-BAF60B (A301-596A-T, Bethyl Laboratories); rabbit polyclonal anti-BAF57 (A300-810A-T, Bethyl Laboratories); rabbit polyclonal anti-BAF53A (A301-391A-T, Bethyl Laboratories); rabbit monoclonal anti-BAF47 (8745, Cell Signaling Technologies); rabbit polyclonal anti-BRD9 (A303-781A-T, Bethyl Laboratories); rabbit monoclonal anti-SS18 (21792, Cell Signaling Technologies); rabbit monoclonal anti-CD133 (64326, Cell Signaling Technologies); rabbit polyclonal anti-srGAP1 (A301-286A-T, Bethyl Laboratories); rabbit polyclonal anti-srGAP2 (GTX130797, GeneTex); mouse monoclonal anti-tubulin (DMIA, Thermo Fisher Scientific); rabbit polyclonal anti-β-actin (4967, Cell Signaling Technologies); mouse monoclonal anti-Rpb1 (2629, Cell Signaling Technologies); rabbit monoclonal anti-cdc6 (3387, Cell Signaling Technologies); rabbit monoclonal anti-caveolin-1 (3267, Cell Signaling Technologies); rabbit polyclonal anti-phospho-caveolin-1 (3251, Cell Signaling Technologies); rabbit monoclonal anti-Src (2123, Cell Signaling Technologies); rabbit monoclonal anti-phospho-Src Family (6943, Cell Signaling Technologies); and rabbit polyclonal anti-GDF6 (NBP1-91934, Novus Biologicals). The following HRP-conjugated secondary antibodies were used: goat anti-rabbit (7074) and goat anti-mouse (7076) (Cell Signaling Technologies); donkey anti-goat (A50)-201P, Bethyl Laboratories).

[2] = system: CD133^low population; assay: Chemotherapeutic drug treatment of CD133high and CD133low populations; format: cell-based, human; details: for CD133low population after prolonged treatment: FIG. 4M
Description: Flow cytometry. Cells were trypsinized, washed with FACS wash buffer (PBS, 0.5% BSA, 2 mM EDTA), and incubated with PE-conjugated human CD133/1 antibody (clone AC133, Miltenyi Biotec; 1:100 in FACS wash buffer) for 20 minutes at 4° C. Cells were washed three times with FACS wash buffer and the CD133^high and CD133^low cell populations were sorted by using BD FACSAria (Becton Dickinson). The FACSDiva 6.1.3 software (Becton Dickinson) was used for sample analysis.

[3] = biological target: T1, Robo3; assay: NELL2-FLAG ligand-binding assay in A-673 cells; details: FIG. 2B
Description: Robo3 expression was readily detectable in Ewing sarcoma tumors and cell lines, but undetectable in mesenchymal stem cells (FIG. 2A). The role of Robo3 as the NELL2 receptor in Ewing sarcoma was tested using ligand-binding assays (FIG. 2B). C-terminally FLAG-tagged NELL2 was produced from transfected 293T/HEK293T cells and was incubated with A-673 cells that were transfected with Robo3 siRNA pool or control siRNA pool. After washing the cells to remove unbound NELL2-FLAG, a whole cell lysate was prepared and analyzed by immunoblotting to assess the binding of NELL2-FLAG to A-673 cells. […] The specificity of the NELL2-Robo3 interaction was further confirmed by ligand-binding assays using alkaline phosphatase-fused NELL2 (NELL2-AP) (FIG. 2C). NELL2-AP bound to COS cells expressing Robo3, but not Robo1 or vector (FIG. 2C).

[4] = system: A673 Ewing sarcoma cells; assay: Growth inhibition screen of anti-NELL2 hybridoma clones / mAbs on Ewing sarcoma cell proliferation; format: cell-based, human; details: mAbs used at 1 μg/ml, FIG. 6
Description: Cell proliferation and xenograft tumorigenicity assays. Anchorage-dependent cell proliferation was assessed by IncuCyte live-cell imaging system (Essen BioScience). The IncuCyte system monitors cell proliferation by analyzing the occupied area (% confluence) of cell images over time. At least four fields from four wells were assayed for each experimental condition. The cell seeding density was 2000 cells per well in a 96-well plate. For each assay, biological replicates were performed to confirm the reproducibility of results. Anchorage-independent cell proliferation was evaluated by soft agar colony formation assays. A-673 cells were infected with lentiviruses expressing shRNAs against NELL2 or scrambled shRNA and were selected with 2 μg/ml puromycin. Four days after infection, 4×10^3 cells were plated in soft agar. The soft agar cultures were composed of two layers; a base layer [4 ml in a 60-mm dish; DMEM/10% fetal bovine serum/0.6% noble agar (A5431, MilliporeSigma)/penicillin/streptomycin] and a cell layer (2 ml in a 60-mm dish; DMEM/10% fetal bovine serum/0.3% noble agar/penicillin/streptomycin). Colonies were grown for three weeks and counted. Colonies (>50 cells) were scored by randomly counting 10 fields per dish. […] Tumor growth was monitored weekly using a caliper. […]

[5] = biological target: T2, NELL2 EGF-like repeats (residue 397-637) (Homo sapiens (Human), UniProt Q99435 397-637); assay: immunogen ELISA of hybridoma clones
T2 construct: also called EGF-like repeat domain of NELL2; immunogen
T2 sequence (Q99435 397-637 limits assumed): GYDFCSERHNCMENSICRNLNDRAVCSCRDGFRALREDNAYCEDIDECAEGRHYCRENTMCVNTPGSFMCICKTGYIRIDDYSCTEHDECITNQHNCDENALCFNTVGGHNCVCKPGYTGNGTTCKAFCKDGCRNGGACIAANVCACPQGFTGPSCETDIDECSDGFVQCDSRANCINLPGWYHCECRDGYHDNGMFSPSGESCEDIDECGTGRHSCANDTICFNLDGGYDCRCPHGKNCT

Row | Molecule | Resistance of CD133low versus CD133high population to the drug [2] | CD133low population after prolonged treatment [2] | Ewing sarcoma cell proliferation [4] | binding result [5] | further results
1 | CC(C)C[C@@H](C=O)NC(=O)[C@H](CC(C)C)NC(=O)[C@H](CC(C)C)NC(=O)OCc1ccccc1 [MG-132, reference compound] (Cbz-Leu-Leu-Leu-aldehyde) | – | – | – | – | Protein levels of BRG1, BAF250A, BAF155, and BAF47 reduced by CN04, effect of proteasome inhibitor [1]: restored
2 | N.N.[Cl][Pt][Cl] [cisplatin] | more resistant | enriched the CD133^low population | – | – | –
3 | COc1cccc2c1C(=O)c1c(O)c3c(c(O)c1C2=O)C[C@@](O)(C(=O)CO)C[C@@H]3O[C@H]1C[C@H](N)[C@H](O)[C@H](C)O1 [doxorubicin] | more resistant | enriched the CD133^low population | – | – | –
4 | NELL2-FLAG: C-terminally FLAG-tagged NELL2 produced from transfected 293T/HEK293T cells | – | – | – | – | Binding to control siRNA transfected A-673 cells [3]: bound; Binding to Robo3-silenced A-673 cells ([3]; Robo3 siRNA pool): abolished
5 | B1 | – | – | strongly inhibited | binds | –
6 | B2 | – | – | strongly inhibited | binds | –

Source: patent publication US20240287164A1, “ANTIBODIES SPECIFIC TO NELL2 AND METHODS OF USE” (BOARD OF REGENTS, THE UNIVERSITY OF TEXAS SYSTEM, priority 2021, published 2024)
